The results in this text go back to patent publication US7919091B2, “Lipolysis stimulated receptor (LSR) specific antibodies” (Serono Genetics Institute S.A., priority 1997, dated 2011).

A short description of assay [1]: Postprandial lipemic response in mice after a high-fat meal. It counts as in vivo. As to conditions: ob/ob mice, 2.5 mg lactoferrin with 0.5 μg leptin i.v. The procedure: Control, ob/ob and db/db mice, starved since the day before, are force-fed with a meal which is very high in fat [60% fat (37% saturated, 27% monounsaturated and 36% polyunsaturated fatty acids), 20% protein and 20% carbohydrate] providing 56 kcal of energy/kg of the weight of the animal. Immediately after the meal (time=0 hour), the mice are injected intravenously with 200 μl of physiological saline solution. At various times, 20 μl of blood are collected via the caudal vein in tubes containing 90 μg of disodium EDTA, and after separating the plasma by centrifugation, the plasma concentration of triglyceridemia is determined with the aid of an enzymatic assay kit. Each point on the curves presented corresponds to the mean with standard deviation obtained for 3 measurements per animal and for 3 different animals.
The procedure is the same as above, except that immediately after the meal (time=0 hour), the mice are injected intravenously with either 200 μl of physiological saline solution, or 200 μl of the same solution containing 50 μg of murine recombinant leptin.
ob/ob mice, starved since the day before, are force-fed with a meal identical to that described above. […] Blood is collected between 2 and 3 hours after the meal and the plasma concentration of triglycerides (TG) is measured. […]

Assay [2] is described as follows: Postprandial lipemic response in rats after AdipoQ injection. The note with it: high-fat meal, 1 mg AdipoQ i.v. Type of assay: in vivo, rat. The procedure:
Male Sprague-Dawley rats (400-450 g), starved since the day before, were force-fed with a meal which was very high in fat (t=0) (60% fatty acid of which 37% saturated, 27% monounsaturated and 36% polyunsaturated, 20% protein and 20% carbohydrate, the total providing 56 kcal/kg of body weight) and received immediately afterwards an intravenous injection (femoral vein) of either 300 μl of PBS alone or of the same volume containing 1 mg of mouse recombinant AdipoQ protein. Blood samples were collected at various times (0, 2, 4 and 6 h). The quantity of plasma triglycerides was measured using an enzymatic kit. The results are presented as mean values and standard deviations on 3 animals.

Assay [3] addresses T1, LSR (Rattus norvegicus, UniProt Q9WU74).
T1 construct: from tissue; host or cells: rat liver plasma membranes / solubilized rat liver membrane proteins
T1 sequence (Q9WU74 36-593): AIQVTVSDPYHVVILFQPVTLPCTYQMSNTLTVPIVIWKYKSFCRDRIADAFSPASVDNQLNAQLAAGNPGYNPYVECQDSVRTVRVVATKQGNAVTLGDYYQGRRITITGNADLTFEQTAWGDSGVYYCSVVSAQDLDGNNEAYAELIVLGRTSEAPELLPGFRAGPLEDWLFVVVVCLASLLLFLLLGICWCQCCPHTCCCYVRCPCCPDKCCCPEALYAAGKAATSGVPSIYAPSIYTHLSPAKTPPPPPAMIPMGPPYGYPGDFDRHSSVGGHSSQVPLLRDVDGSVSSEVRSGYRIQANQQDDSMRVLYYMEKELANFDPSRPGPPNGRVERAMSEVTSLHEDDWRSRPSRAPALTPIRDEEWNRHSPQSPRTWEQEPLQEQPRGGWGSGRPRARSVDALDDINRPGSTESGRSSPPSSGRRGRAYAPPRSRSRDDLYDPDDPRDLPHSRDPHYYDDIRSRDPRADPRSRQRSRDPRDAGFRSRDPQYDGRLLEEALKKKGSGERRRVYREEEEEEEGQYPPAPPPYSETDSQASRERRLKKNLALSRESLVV
T1 sequence (Q9WU74 36-525 isoform Q9WU74-3 limits assumed): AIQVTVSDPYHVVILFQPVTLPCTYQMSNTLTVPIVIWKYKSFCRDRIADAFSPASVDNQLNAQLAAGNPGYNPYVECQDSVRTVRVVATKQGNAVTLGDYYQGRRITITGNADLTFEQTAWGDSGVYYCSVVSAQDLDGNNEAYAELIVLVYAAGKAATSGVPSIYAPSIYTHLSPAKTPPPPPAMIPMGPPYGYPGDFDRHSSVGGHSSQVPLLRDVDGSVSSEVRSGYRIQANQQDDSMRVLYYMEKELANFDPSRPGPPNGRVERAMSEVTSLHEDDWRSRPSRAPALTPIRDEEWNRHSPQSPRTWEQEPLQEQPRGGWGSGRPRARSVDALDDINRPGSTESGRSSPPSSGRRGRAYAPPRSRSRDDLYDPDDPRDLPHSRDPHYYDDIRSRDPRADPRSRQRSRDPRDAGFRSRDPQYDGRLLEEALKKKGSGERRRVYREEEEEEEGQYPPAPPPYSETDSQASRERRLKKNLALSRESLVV
Nature of the assay: Effect of AdipoQ on LSR activity in primary culture of rat hepatocytes. Type of assay: cell-based. As to conditions: 25 ng/ml AdipoQ, in the presence of oleate. The procedure:
Primary cultures of rat hepatocytes were prepared and distributed into 6-well plates (9000,000 cells/well). After 48 h, the cells were washed once with PBS (2 ml/well) and incubated for 30 min at 37° C. with 20 ng/ml of recombinant murine leptin. The cells were then incubated for 4 h at 37° C. with increasing concentrations of recombinant murine AdipoQ proteins and 20 μg/ml ^125I-LDL in the presence or in the absence of 0.5 mM oleate. The binding, internalization and degradation of lipoproteins were measured as indicated in Example 1.

The nature of assay [4]: Food intake in ob/ob and db/db mice under AdipoQ. It counts as in vivo. As to conditions: ob/ob and db/db obese mice, 100 μg daily for 5 days. The procedure: Recombinant AdipoQ protein (100 μg) or PBS alone were injected daily for 5 days through the caudal vein of ob/ob or db/db mice kept in a metabolic cage. The mice are weighed each day and the quantity of food consumed was also measured. The results correspond to a mean food intake and a standard deviation for 4 mice in each group.

The nature of assay [5]: Change in weight and plasma triglycerides in rats under AdipoQ infusion. It counts as in vivo, rat. The note with it: 3-day ip infusion. How it is done: Osmotic pumps were surgically inserted into the abdominal cavities of 12 Sprague-Dawley male rats of 400-450 g. The osmotic pumps contained either 2 ml of PBS (phosphate buffered saline), pH 7.4 (control 6 rats), or 2 ml of recombinant AdipoQ protein (5 mg/ml PBS, 6 rats). These pumps were designed to deliver 10 μl/h (50 μg AdipoQ/h). The animals are weighed and individually housed in metabolic cages. 3 animals in each group are subjected ad libitum either to a normal diet or to a fatty diet (day 0). The fatty diet consists of a normal diet supplemented with 2% (w/w) cholesterol, 10% (w/w) saturated fatty acid in the form of vegetaline, [lacuna] % (w/w) sunflower oil and 15% (w/w) sucrose. On day 3, the animals are weighed and blood samples are obtained from the caudal vein. The quantity of plasma triglycerides was measured using an enzymatic kit.

B1: lactoferrin: human lactoferrin (Serva), blocks the activity of LSR (protein, UniProt P02788 20-710, looked up)
Lactotransferrin: GRRRSVQWCAVSQPEATKCFQWQRNMRKVRGPPVSCIKRDSPIQCIQAIAENRADAVTLDGGFIYEAGLAPYKLRPVAAEVYGTERQPRTHYYAVAVVKKGGSFQLNELQGLKSCHTGLRRTAGWNVPIGTLRPFLNWTGPPEPIEAAVARFFSASCVPGADKGQFPNLCRLCAGTGENKCAFSSQEPYFSYSGAFKCLRDGAGDVAFIRESTVFEDLSDEAERDEYELLCPDNTRKPVDKFKDCHLARVPSHAVVARSVNGKEDAIWNLLRQAQEKFGKDKSPKFQLFGSPSGQKDLLFKDSAIGFSRVPPRIDSGLYLGSGYFTAIQNLRKSEEEVAARRARVVWCAVGEQELRKCNQWSGLSEGSVTCSSASTTEDCIALVLKGEADAMSLDGGYVYTAGKCGLVPVLAENYKSQQSSDPDPNCVDRPVEGYLAVAVVRRSDTSLTWNSVKGKKSCHTAVDRTAGWNIPMGLLFNQTGSCKFDEYFSQSCAPGSDPRSNLCALCIGDEQGENKCVPNSNERYYGYTGAFRCLAENAGDVAFVKDVTVLQNTDGNNNEAWAKDLKLADFALLCLDGKRKPVTEARSCHLAMAPNHAVVSRMDKVERLKQVLLHQQAKFGRNGSDCPDKFCLFQSETKNLLFNDNTECLARLHGKTTYEKYLGPQYVAGITNLKKCSTSPLLEACEFLRK
As to B1, in assay [1], the “reduction in the lipemic response induced by leptin” value was “suppressed”.

B2: AdipoQ: mouse recombinant AdipoQ protein with hexahistidine peptide, expressed in E. coli; homologue of complement C1q (protein)
chain: SHAEDDVTTTEELAPALVPPPKGTCAGWMAGIPGHPGHNGTPGRDGRDGTPGEKGEKGDAGLLGPKGETGDVGMTGAEGPRGFPGTPGRKGEPGEAAYVYRSAFSVGLETRVTVPNVPIRFTKIFYNQQNHYDGSTGKFYCNIPGLYYFSYHITVYMKDVKVSLFKKDKAVLFTYDQYQEKNVDQASGSVLLHLEVGDQVWLQVYGDGDHNGLYADNVNDSTFTGFLLYHDTN
modifications: left off: small tags and cut ends
notes: mouse recombinant AdipoQ protein with hexahistidine peptide, expressed in E. coli; homologue of complement C1q
On to B2, for which the postprandial lipemic response entry in assay [2] is listed as “massively reduce”. In addition, the LSR activity entry in assay [3] is reported as “increases”. In addition, the food intake entry in assay [4] was “reduces”. Further, the “level of plasma triglycerides” value in assay [5] is “reduced”. Moreover, the weight entry in assay [5] (normal or fatty diet) is “loss in weight”.
